Consider three molecules from patent US20230053449A1, “DC-SIGN ANTIBODY DRUG CONJUGATES” (NOVARTIS AG, priority 2018, published 2023).

For data set [1], the target named is T1, cynomolgus monkey DC-SIGN, full length, stably expressed on CHO cells (cynomolgus monkey, UniProt Q95J96 1-403 (rhesus entry)).
T1 construct: also called cyno DC-SIGN CHO
T1 sequence: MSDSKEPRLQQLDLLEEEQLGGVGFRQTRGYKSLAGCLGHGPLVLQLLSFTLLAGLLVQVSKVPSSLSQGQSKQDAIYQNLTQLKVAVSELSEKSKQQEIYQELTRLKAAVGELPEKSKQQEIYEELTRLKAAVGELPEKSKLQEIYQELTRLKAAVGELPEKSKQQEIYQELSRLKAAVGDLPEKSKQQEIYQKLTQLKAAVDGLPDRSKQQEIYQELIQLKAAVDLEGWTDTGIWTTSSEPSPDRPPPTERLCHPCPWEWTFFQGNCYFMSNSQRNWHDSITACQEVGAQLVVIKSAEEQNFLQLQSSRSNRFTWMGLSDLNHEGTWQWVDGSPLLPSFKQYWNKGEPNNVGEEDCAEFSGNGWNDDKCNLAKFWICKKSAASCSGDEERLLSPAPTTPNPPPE
In words: flow cytometry, CHO cells expressing cyno DC-SIGN. As to the method:
(§1) The affinity of various antibodies and ADCs to DC-SIGN and its species orthologues was determined using FACS. Purified IgGs were titrated to determine EC50 values for binding to cell surface expressed DC-SIGN.
(§2) For this purpose, human DC-SIGN expressing or cynomolgus monkey DC-SIGN expressing stable CHO cell lines or K562 expressing DC-SIGN or K562 expressing L-SIGN cell lines were checked for density and viability using VICELL (Beckman Coulter), and washed once with 4° C. PBS. Cells were stained with DAPI (0.5 ug/mL) diluted in PBS for 30 min on ice. Cells were diluted into 4° C. FACS buffer (PBS, 10 mM EDTA, 2% FBS). 125 μl of cells were seeded (10,000 cells/well) into 96-well v-bottom plates (Nunc cat #442587) and centrifuged for 4 min at 1500 rpm at 4° C. Supernatant was removed. […] Following incubation, cells were spun down (1500 rpm, 4 min, 4° C.) and washed two times with FACS buffer. A fluorophore-conjugated anti-hFc gamma-AF-647 (Southern Biotechnology) detection antibody was added at 1:400 dilution and samples were incubated for 1 h on ice in the dark.
Background: A flow cytometer gives signals particle by particle.

For data set [2], the target named is T2, human DC-SIGN, full length, stably expressed on CHO or K562 cells (human, UniProt Q9NNX6 1-404).
T2 construct: Also the native/transgenic human DC-SIGN on moDCs, macrophages and Tg+ mouse dendritic cells in the functional entries; also called human DC-SIGN CHO; human DC-SIGN K562
T2 sequence: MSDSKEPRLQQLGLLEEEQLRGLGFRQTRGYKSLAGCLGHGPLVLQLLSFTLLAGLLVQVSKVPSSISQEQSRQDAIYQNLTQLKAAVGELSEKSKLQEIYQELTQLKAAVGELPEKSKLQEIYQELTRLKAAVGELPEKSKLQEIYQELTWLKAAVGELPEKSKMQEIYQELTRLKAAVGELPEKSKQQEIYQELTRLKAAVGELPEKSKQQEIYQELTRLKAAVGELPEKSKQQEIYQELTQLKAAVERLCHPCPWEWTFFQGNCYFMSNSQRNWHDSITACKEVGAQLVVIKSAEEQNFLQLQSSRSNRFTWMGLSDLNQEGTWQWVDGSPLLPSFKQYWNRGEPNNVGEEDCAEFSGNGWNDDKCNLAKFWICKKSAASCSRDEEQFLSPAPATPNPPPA
The data set is described as follows: flow cytometry, CHO cells expressing human DC-SIGN. On the procedure:
as §1, §2

Data set [3] addresses T2, human DC-SIGN, full length, stably …. In words: flow cytometry, K562 cells expressing human DC-SIGN. On the procedure: as §1, §2
For another data set, the target named is T3, L-SIGN (Homo sapiens, UniProt Q9H2X3).
T3 construct: expressed in transfected cells; host or cells: K562 (retroviral transduction)
T3 sequence (Q9H2X3 1-399): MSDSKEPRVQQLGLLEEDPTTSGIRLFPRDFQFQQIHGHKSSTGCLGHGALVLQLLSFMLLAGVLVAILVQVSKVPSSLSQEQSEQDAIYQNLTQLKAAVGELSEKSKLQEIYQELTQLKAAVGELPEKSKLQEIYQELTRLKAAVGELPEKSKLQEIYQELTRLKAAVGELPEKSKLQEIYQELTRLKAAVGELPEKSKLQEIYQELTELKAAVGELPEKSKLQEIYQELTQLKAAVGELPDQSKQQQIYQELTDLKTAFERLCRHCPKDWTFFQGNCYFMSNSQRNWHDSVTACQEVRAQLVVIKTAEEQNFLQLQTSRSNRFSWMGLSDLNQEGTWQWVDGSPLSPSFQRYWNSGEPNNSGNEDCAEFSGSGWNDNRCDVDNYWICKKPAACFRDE
In words: FACS binding to L-SIGN expressing K562 cells. As to the method: as §1
For this purpose, human DC-SIGN expressing or cynomolgus monkey DC-SIGN expressing stable CHO cell lines or K562 expressing DC-SIGN or K562 expressing L-SIGN cell lines were checked for density and viability using VICELL (Beckman Coulter), and washed once with 4° C. PBS. Cells were stained with DAPI (0.5 ug/mL) diluted in PBS for 30 min on ice. Cells were diluted into 4° C. FACS buffer (PBS, 10 mM EDTA, 2% FBS). 125 μl of cells were seeded (10,000 cells/well) into 96-well v-bottom plates (Nunc cat #442587) and centrifuged for 4 min at 1500 rpm at 4° C. Supernatant was removed. […] After the final wash, cells were resuspended in Fixative Buffer (Biolegend, 420801) and 90 μl of FACS buffer followed by readout on the flow cytometry machine (BD LSRFortessa Cell Analyzer; Cat #647177). Geometric Mean fluorescence intensity (MFI) of live, single cells was calculated in Flowjo 10.4.2 and exported into Graphpad Prism7 for EC50 determination.
Selectivity was assessed by measuring apparent binding affinities to isogenic cell pairs engineered to overexpress DC-SIGN as well as cell lines expressing DC-SIGN paralog L-SIGN.

A short description of data set [4]: Aggregation by analytical size-exclusion chromatography (AnSEC). Format: physicochemical. Conditions: conjugate with linker-payload C-5. As to the method:
Conjugates were profiled using analytical size-exclusion chromatography (AnSEC) on Zenix C-300 3 um 7.8×150 mm column (Sepax Technologies). Alternatively, samples were tested on a KW-803 column (TIC Cat #6960940) Aggregation was analyzed based on analytical size exclusion chromatography and reported as the % monomer based on AUC of the assigned monomer peak.
The sample shown below in Table 20 achieved >90% conjugation efficiency and >95% purity as assessed by AnSEC. This illustrates that conjugates of the invention can be made efficiently and have favorable characteristics.

B1: 1G12 Parental (antibody, V domains shown)
VH: QVQLQQSGPGLVQPSQSLSITCTVSGFSLTNYGVHWVRQSPGKGLEWLGVIWRGESTDYNAAFMSRLSVTKDDSKSQVFFKMNSLQADDTAIYYCARNGGSSGWYFDVWGTGTTVTVSS
VL: DIQMTQTHKFMSTSVGDRVSITCKASQDVTSAVAWYQQTPGQSPNLLIYWTSTRHTGVPDRFTGSGSGTDYTLTISSVQAEDLALYYCQQHYTTPLTFGAGTKLELK
On to B1, for which the EC50 in data set [1] was determined as 0.07 µg/mL; in data set [2], 0.06 µg/mL; in data set [3], 0.02 µg/mL.

B2: 2B2 Hz: Humanization of Antibodies 2B2 and 1G12: variable region constructs were designed for humanization and optimization of sequences (antibody)
heavy: QVQLVQSGAEVKKPGASVKVSCKASGYTFTNYGINWVRQAPGQRLEWMGYIYIGNDYTEYNERFKGRVTITSDTSASTAYMELSSLRSEDTAVYYCARLYYGSSLYSYAMDYWGQGTTVTVSSASTKGPSVFPLAPSSKSTSGGTAALGCLVKDYFPCPVTVSWNSGALTSGVHTFPAVLQSSGLYSLSSVVTVPSSSLGTQTYICNVNHKPSNTKVDKRVEPKSCDKTHTCPPCPAPELLGGPSVFLFPPKPKDTLMISRTPEVTCVVVAVSHEDPEVKFNWYVDGVEVHNAKTKPREEQYNSTYRVVSVLTVLHQDWLNGKEYKCKVSNKALAAPIEKTISKAKGQPREPQVYTLPPSREEMTKNQVSLTCLVKGFYPCDIAVEWESNGQPENNYKTTPPVLDSDGSFFLYSKLTVDKSRWQQGNVFSCSVMHEALHNHYTQKSLSLSPGK
light: DIVMTQSPLSLPVTPGEPASISCRSSKSLLHSSGNTYLYWFLQKPGQSPQLLISRMSNLASGVPDRFSGSGSGTDFTLKISRVEAEDVGVYYCMQHLEYPYTFGGGTKVEIKRTVAAPSVFIFPPSDEQLKSGTASVVCLLNNFYPREAKVQWKVDNALQSGNSQESVTEQDSKDSTYSLSSTLTLSKADYEKHKVYACEVTHQGLSSPVTKSFNRGEC
Regarding B2, the “human L-SIGN K562 EC50” value in the data set with L-SIGN was more than 10 µg/mL.

B3: 2B2 Chimeric (antibody)
heavy: EVQLQQSGAELVRPGSSVKMSCKTSGYTFTNYGINWVKQRPGQGLEWIGYIYIGNDYTEYNERFKGKATLTSDTSSSTAHIQLNSLTSEDSAIYFCARLYYGSSLYSYAMDYWGQGTSVTVSSASTKGPSVFPLAPSSKSTSGGTAALGCLVKDYFPCPVTVSWNSGALTSGVHTFPAVLQSSGLYSLSSVVTVPSSSLGTQTYICNVNHKPSNTKVDKRVEPKSCDKTHTCPPCPAPELLGGPSVFLFPPKPKDTLMISRTPEVTCVVVAVSHEDPEVKFNWYVDGVEVHNAKTKPREEQYNSTYRVVSVLTVLHQDWLNGKEYKCKVSNKALAAPIEKTISKAKGQPREPQVYTLPPSREEMTKNQVSLTCLVKGFYPCDIAVEWESNGQPENNYKTTPPVLDSDGSFFLYSKLTVDKSRWQQGNVFSCSVMHEALHNHYTQKSLSLSPGK
light: DIVMTQAAPSVSVTPGESVSISCRSSKSLLHSSGNTYLYWFLQRPGQSPQLLISRMSNLASGVPDRFSGSGSGTAFTLRISRVEAEDVGVYYCMQHLEYPYTFGGGTKLELKRTVAAPSVFIFPPSDEQLKSGTASVVCLLNNFYPREAKVQWKVDNALQSGNSQESVTEQDSKDSTYSLSSTLTLSKADYEKHKVYACEVTHQGLSSPVTKSFNRGEC
For the molecule B3, the “% Monomer” value is recorded as 99% in data set [4] (after preparative SEC) and 95.4% in data set [4] (before preparative SEC).

Usually EC50 stands for the concentration giving half of the maximal effect.
